Measured values from the Human Domainome abundance scans (Beltran et al. 2025).
± gives the uncertainty stated by the source.

B1: Proto-oncogene vav, residues 782 to 842; numbered along this chain, P15498 (parent)
chain: KYFGTAKARYDFCARDRSELSLKEGDIIKILNKKGQQGWWRGEIYGRVGWFPANYVEEDYS

Variants of: B1
Assay: abundance fitness (aPCA) (normalised: wild type 0, dead -1); higher = more abundant; growth selection in yeast, the domain comes from the species named
Details: Homo sapiens

Variant	abundance fitness
KYFGTAKARYDFCARDRSELSLKEGDIIKIKNKKGQQGWWRGEIYGRVGWFPANYVEEDYS [L31K]	-0.392 ± 0.13
KYFGTAKARYDFCARDRSELSLKEGDIIKIMNKKGQQGWWRGEIYGRVGWFPANYVEEDYS [L31M]	-0.366 ± 0.11
KYFGTAKARYDFCARDRSELSLKEGDIIKIGNKKGQQGWWRGEIYGRVGWFPANYVEEDYS [L31G]	-0.773 ± 0.13
KYFGTAKARYDFCARDRSELSLKEGDIIKITNKKGQQGWWRGEIYGRVGWFPANYVEEDYS [L31T]	-0.133 ± 0.085
KYFGTAKARYDFCARDRSELSLKEGDIIKINNKKGQQGWWRGEIYGRVGWFPANYVEEDYS [L31N]	-0.649 ± 0.18
KYFGTAKARYDFCARDRSELSLKEGDIIKIYNKKGQQGWWRGEIYGRVGWFPANYVEEDYS [L31Y]	-0.188 ± 0.17
KYFGTAKARYDFCARDRSELSLKEGDIIKIPNKKGQQGWWRGEIYGRVGWFPANYVEEDYS [L31P]	-0.988 ± 0.42
KYFGTAKARYDFCARDRSELSLKEGDIIKICNKKGQQGWWRGEIYGRVGWFPANYVEEDYS [L31C]	-0.412 ± 0.23
KYFGTAKARYDFCARDRSELSLKEGDIIKIRNKKGQQGWWRGEIYGRVGWFPANYVEEDYS [L31R]	-0.461 ± 0.094
KYFGTAKARYDFCARDRSELSLKEGDIIKIENKKGQQGWWRGEIYGRVGWFPANYVEEDYS [L31E]	-0.644 ± 0.32
KYFGTAKARYDFCARDRSELSLKEGDIIKIVNKKGQQGWWRGEIYGRVGWFPANYVEEDYS [L31V]	-0.285 ± 0.092
KYFGTAKARYDFCARDRSELSLKEGDIIKIWNKKGQQGWWRGEIYGRVGWFPANYVEEDYS [L31W]	-0.251 ± 0.11
KYFGTAKARYDFCARDRSELSLKEGDIIKIINKKGQQGWWRGEIYGRVGWFPANYVEEDYS [L31I]	-0.004 ± 0.1
KYFGTAKARYDFCARDRSELSLKEGDIIKIHNKKGQQGWWRGEIYGRVGWFPANYVEEDYS [L31H]	-0.285 ± 0.16
KYFGTAKARYDFCARDRSELSLKEGDIIKIDNKKGQQGWWRGEIYGRVGWFPANYVEEDYS [L31D]	-0.415 ± 0.24
KYFGTAKARYDFCARDRSELSLKEGDIIKIQNKKGQQGWWRGEIYGRVGWFPANYVEEDYS [L31Q]	-0.525 ± 0.25
KYFGTAKARYDFCARDRSELSLKEGDIIKIANKKGQQGWWRGEIYGRVGWFPANYVEEDYS [L31A]	-0.816 ± 0.16
KYFGTAKARYDFCARDRSELSLKEGDIIKIFNKKGQQGWWRGEIYGRVGWFPANYVEEDYS [L31F]	-0.46 ± 0.22
KYFGTAKARYDFCARDRSELSLKEGDIIKISNKKGQQGWWRGEIYGRVGWFPANYVEEDYS [L31S]	-0.618 ± 0.11
KYFGTAKARYDFCARDRSELSLKEGDIIKELNKKGQQGWWRGEIYGRVGWFPANYVEEDYS [I30E]	-0.876 ± 0.46
KYFGTAKARYDFCARDRSELSLKEGDIIKMLNKKGQQGWWRGEIYGRVGWFPANYVEEDYS [I30M]	-0.555 ± 0.15
KYFGTAKARYDFCARDRSELSLKEGDIIKVLNKKGQQGWWRGEIYGRVGWFPANYVEEDYS [I30V]	0.006 ± 0.075

Variant	abundance fitness
KYFGTAKARYDFCARDRSELSLKEGDIIKYLNKKGQQGWWRGEIYGRVGWFPANYVEEDYS [I30Y]	-0.74 ± 0.25
KYFGTAKARYDFCARDRSELSLKEGDIIKRLNKKGQQGWWRGEIYGRVGWFPANYVEEDYS [I30R]	-0.634 ± 0.093
KYFGTAKARYDFCARDRSELSLKEGDIIKLLNKKGQQGWWRGEIYGRVGWFPANYVEEDYS [I30L]	-0.319 ± 0.055
KYFGTAKARYDFCARDRSELSLKEGDIIKGLNKKGQQGWWRGEIYGRVGWFPANYVEEDYS [I30G]	-0.675 ± 0.11
KYFGTAKARYDFCARDRSELSLKEGDIIKALNKKGQQGWWRGEIYGRVGWFPANYVEEDYS [I30A]	-0.552 ± 0.12
KYFGTAKARYDFCARDRSELSLKEGDIIKSLNKKGQQGWWRGEIYGRVGWFPANYVEEDYS [I30S]	-0.662 ± 0.12
KYFGTAKARYDFCARDRSELSLKEGDIIKNLNKKGQQGWWRGEIYGRVGWFPANYVEEDYS [I30N]	-0.77 ± 0.33
KYFGTAKARYDFCARDRSELSLKEGDIIKPLNKKGQQGWWRGEIYGRVGWFPANYVEEDYS [I30P]	-0.814 ± 0.26
KYFGTAKARYDFCARDRSELSLKEGDIIKWLNKKGQQGWWRGEIYGRVGWFPANYVEEDYS [I30W]	-0.871 ± 0.16
KYFGTAKARYDFCARDRSELSLKEGDIIKFLNKKGQQGWWRGEIYGRVGWFPANYVEEDYS [I30F]	-0.776 ± 0.38
KYFGTAKARYDFCARDRSELSLKEGDIIKQLNKKGQQGWWRGEIYGRVGWFPANYVEEDYS [I30Q]	-0.833 ± 0.29
KYFGTAKARYDFCARDRSELSLKEGDIIKILAKKGQQGWWRGEIYGRVGWFPANYVEEDYS [N32A]	-0.031 ± 0.075
KYFGTAKARYDFCARDRSELSLKEGDIIKILIKKGQQGWWRGEIYGRVGWFPANYVEEDYS [N32I]	-0.363 ± 0.22
KYFGTAKARYDFCARDRSELSLKEGDIIKILEKKGQQGWWRGEIYGRVGWFPANYVEEDYS [N32E]	0.123 ± 0.11
KYFGTAKARYDFCARDRSELSLKEGDIIKILHKKGQQGWWRGEIYGRVGWFPANYVEEDYS [N32H]	-0.02 ± 0.15
KYFGTAKARYDFCARDRSELSLKEGDIIKILGKKGQQGWWRGEIYGRVGWFPANYVEEDYS [N32G]	-0.075 ± 0.07
KYFGTAKARYDFCARDRSELSLKEGDIIKILFKKGQQGWWRGEIYGRVGWFPANYVEEDYS [N32F]	-0.118 ± 0.092
KYFGTAKARYDFCARDRSELSLKEGDIIKILDKKGQQGWWRGEIYGRVGWFPANYVEEDYS [N32D]	0.162 ± 0.098
KYFGTAKARYDFCARDRSELSLKEGDIIKILKKKGQQGWWRGEIYGRVGWFPANYVEEDYS [N32K]	-0.221 ± 0.12
KYFGTAKARYDFCARDRSELSLKEGDGIKILNKKGQQGWWRGEIYGRVGWFPANYVEEDYS [I27G]	-0.704 ± 0.093
KYFGTAKARYDFCARDRSELSLKEGDSIKILNKKGQQGWWRGEIYGRVGWFPANYVEEDYS [I27S]	-0.276 ± 0.079
